T1: S. gordonii SecY2-Asp4-Asp5 complex (S. gordonii) (UniProt A8AWV0)
T1 sequence 1: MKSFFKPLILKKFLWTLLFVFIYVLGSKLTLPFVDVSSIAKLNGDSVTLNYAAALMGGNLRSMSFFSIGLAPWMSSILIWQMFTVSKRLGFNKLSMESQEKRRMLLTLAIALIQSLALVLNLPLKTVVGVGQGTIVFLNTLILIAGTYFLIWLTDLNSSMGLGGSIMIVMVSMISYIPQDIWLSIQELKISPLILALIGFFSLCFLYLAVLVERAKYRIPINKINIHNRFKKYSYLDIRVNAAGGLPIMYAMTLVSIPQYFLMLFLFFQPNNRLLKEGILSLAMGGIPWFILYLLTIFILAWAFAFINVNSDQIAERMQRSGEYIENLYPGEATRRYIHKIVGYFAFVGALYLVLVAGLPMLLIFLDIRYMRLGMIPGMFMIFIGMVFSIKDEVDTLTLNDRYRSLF
T1 sequence 2: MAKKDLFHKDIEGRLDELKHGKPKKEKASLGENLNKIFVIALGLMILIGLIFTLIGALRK
T1 sequence 3: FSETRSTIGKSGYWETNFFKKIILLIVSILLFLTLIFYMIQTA


Molecular target: T1, S. gordonii SecY2-Asp4-Asp5 complex (S. gordonii)

E. coli SecA, sequence (P10408 whole entry): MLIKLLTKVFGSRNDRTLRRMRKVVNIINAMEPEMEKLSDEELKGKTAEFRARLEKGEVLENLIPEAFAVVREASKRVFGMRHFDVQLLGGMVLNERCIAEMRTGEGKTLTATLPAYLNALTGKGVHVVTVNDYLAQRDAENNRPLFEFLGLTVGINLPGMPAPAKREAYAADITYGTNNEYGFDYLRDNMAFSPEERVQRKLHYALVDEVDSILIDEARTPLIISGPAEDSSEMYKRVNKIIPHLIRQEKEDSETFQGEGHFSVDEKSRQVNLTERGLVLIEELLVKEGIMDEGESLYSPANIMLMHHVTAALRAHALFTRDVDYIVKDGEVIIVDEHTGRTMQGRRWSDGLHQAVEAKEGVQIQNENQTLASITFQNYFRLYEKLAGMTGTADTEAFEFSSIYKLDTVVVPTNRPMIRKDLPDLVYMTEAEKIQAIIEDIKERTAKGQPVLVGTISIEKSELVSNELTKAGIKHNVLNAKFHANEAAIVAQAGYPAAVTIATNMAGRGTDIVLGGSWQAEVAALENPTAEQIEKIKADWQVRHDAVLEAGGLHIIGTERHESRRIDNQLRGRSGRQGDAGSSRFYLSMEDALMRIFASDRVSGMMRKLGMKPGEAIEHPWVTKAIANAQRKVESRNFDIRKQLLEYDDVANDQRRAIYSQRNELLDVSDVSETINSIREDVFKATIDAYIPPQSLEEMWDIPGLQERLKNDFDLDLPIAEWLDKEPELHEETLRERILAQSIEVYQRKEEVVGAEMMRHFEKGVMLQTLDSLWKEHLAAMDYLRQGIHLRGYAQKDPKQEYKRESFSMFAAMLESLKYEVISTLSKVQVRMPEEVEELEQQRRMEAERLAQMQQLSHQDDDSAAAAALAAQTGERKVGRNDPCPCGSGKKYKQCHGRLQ

| Molecule | steady-state ATPase activity of 0.3 uM E. coli SecA on addition of 0.46 uM SecY2-Asp4-Asp5 in proteoliposomes, 25 C (SecA alone ~0.02 s^-1) | steady-state ATPase activity of 0.3 uM S. gordonii SecA2 on addition of 0.46 uM SecY2-Asp4-Asp5 in proteoliposomes, 25 C (SecA2 alone ~0.01 s^-1; 4-fold increase) |
| --- | --- | --- |
| E. coli SecA (from UniProt P10408 1-901) (enzyme) | 0.072 s⁻¹ | – |
| S. gordonii SecA2 with a C-terminal His6 tag (enzyme) MVKNFFHIRRLKKILAKIKSFEKEMSSLSDLDLQKKTDEFKKRLADGENLDQLLPEAYAVVREVDKRILGLFPYDVQVMGAIVLHEGNIAEMATGEGKTLTATMPLYLNALSGQGAMLVTPNSYLALRDAKEMGPVYRFLGLTIETAVRADESKPLETKEKRRIYQADIIYTTNSALGFDYLIENLAENKKNQFLREFNYVIIDEIDSILLDSAQTPLIISGAPRVQSNFYDMMNTLVQTLYEDEDYCYDDEKNEVWLTQKGIRAAESFLGLNHLFSKENQELVRHLNLALRAHMVYKKDQDYVVRQSENEAEVVLLDRATGRLMELTRLQGGQHQAIEAKEHVKLTQETRAMASITYQNLFKLFRKLSGMTGTGKVVESEFLETYSMSVVKIPTNCPVIRRDYPDQIYQTLPEKVFASLDEVKHYHAKGNPLLIFTGSVEMSEIYSSLLLREGIAHNLLNANNVAREAQMIAESGQLGAVTVATSMAGRGTDIKLGPGVADLGGLVVIGTERMENHRIDLQIRGRSGRQGDPGISKFFISLEDDLLKKWGPDWIKNFYRDYSPEDFKNNPILLKQRRFKKLVSKAQKASEGNAKLSRRLTLEYAQSMKIQRELTYAERNRLLEDTNEMEEEINRVIEYVIKQVAYEQSFENRADFYRFILHHFSNRAERIPQEFDIHSPKEVSHLLQAIAEQELLAKKSYLKSDKLYSQFQRLAILKAIDENWVEQVDYLQQLKSALSGFHTSNKKPIVEYYQEAYDGFEYMKERMKHQIVKNLLMSELALNPKGEVVMYFP | – | 0.044 s⁻¹ |
